The source of these data is publication PMC3089468 (Nucleic Acids Research, 2011).

Holding throughout (test): two-hybrid
For assay [1], the target named is λCI_Arnt362 V306D (human, UniProt P27540 1-362, V306D).
For assay [2], the target named is λCI_Arnt362 C265R (human, UniProt P27540 1-362, C265R).
Assay [3] has as its target λCI_Arnt362 C308R (human, UniProt P27540 1-362, C308R).
Assay [4] addresses λCI_Arnt362 A339D (human, UniProt P27540 1-362, A339D).
For assay [5], the target named is λCI_Arnt362 G341D (human, UniProt P27540 1-362, G341D).
Assay [6] concerns the target λCI_Arnt362 L221H (human, UniProt P27540 1-362, L221H).
Assay [7] addresses λCI_Arnt362 M267K (human, UniProt P27540 1-362, M267K).

Some results are limits rather than exact numbers.

Chain of λCI_Arnt362 C265R (P27540 1-362 C265R): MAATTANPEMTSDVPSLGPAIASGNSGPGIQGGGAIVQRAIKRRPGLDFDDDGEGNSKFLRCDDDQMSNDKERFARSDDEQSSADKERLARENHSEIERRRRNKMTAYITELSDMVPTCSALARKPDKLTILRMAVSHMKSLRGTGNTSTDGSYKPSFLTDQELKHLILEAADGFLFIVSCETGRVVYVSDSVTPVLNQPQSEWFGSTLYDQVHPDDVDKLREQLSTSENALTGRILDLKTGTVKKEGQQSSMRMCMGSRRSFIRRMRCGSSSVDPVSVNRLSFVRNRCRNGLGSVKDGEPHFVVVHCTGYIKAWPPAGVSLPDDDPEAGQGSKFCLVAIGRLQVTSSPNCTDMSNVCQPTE
Chain of λCI_Arnt362 V306D (P27540 1-362 V306D): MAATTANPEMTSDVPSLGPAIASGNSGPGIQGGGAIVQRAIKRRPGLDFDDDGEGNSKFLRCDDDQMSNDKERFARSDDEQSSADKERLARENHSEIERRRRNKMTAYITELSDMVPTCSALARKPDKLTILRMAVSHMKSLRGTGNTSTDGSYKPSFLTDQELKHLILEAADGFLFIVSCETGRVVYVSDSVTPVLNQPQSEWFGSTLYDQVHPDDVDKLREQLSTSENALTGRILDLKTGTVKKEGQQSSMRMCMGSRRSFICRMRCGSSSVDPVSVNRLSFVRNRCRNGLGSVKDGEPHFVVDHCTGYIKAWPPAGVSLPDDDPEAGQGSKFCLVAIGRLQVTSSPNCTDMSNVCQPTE
Chain of λCI_Arnt362 G341D (P27540 1-362 G341D): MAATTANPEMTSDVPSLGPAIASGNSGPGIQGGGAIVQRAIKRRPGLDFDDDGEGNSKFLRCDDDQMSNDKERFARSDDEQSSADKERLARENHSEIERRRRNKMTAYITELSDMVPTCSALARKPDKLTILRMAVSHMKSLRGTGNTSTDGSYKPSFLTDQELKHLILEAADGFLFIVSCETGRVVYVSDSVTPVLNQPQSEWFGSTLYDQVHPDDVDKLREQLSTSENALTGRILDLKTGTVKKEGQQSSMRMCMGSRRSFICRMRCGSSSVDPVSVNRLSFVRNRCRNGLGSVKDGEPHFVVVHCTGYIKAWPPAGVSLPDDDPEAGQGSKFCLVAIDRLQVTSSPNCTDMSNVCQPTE
Chain of λCI_Arnt362 M267K (P27540 1-362 M267K): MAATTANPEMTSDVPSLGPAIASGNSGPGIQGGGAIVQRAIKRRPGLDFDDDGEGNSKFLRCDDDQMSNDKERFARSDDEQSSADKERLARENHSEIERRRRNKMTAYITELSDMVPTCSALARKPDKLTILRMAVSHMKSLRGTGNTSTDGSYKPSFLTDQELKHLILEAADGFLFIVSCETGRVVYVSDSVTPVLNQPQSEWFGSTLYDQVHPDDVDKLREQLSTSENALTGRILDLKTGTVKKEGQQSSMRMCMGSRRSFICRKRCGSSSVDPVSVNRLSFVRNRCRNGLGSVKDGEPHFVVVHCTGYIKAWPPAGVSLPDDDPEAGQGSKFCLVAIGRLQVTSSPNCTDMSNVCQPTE
Chain of λCI_Arnt362 L221H (P27540 1-362 L221H): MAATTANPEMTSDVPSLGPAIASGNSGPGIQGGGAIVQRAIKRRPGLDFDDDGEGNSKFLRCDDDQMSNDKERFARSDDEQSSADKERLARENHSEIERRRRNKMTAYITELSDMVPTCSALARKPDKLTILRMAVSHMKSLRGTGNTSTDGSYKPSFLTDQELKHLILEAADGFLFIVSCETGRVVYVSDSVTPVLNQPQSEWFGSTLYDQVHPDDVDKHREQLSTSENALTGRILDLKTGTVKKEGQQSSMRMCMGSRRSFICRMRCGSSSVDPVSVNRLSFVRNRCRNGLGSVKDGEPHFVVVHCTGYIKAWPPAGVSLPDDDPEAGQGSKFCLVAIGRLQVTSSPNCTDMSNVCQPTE
Chain of λCI_Arnt362 A339D (P27540 1-362 A339D): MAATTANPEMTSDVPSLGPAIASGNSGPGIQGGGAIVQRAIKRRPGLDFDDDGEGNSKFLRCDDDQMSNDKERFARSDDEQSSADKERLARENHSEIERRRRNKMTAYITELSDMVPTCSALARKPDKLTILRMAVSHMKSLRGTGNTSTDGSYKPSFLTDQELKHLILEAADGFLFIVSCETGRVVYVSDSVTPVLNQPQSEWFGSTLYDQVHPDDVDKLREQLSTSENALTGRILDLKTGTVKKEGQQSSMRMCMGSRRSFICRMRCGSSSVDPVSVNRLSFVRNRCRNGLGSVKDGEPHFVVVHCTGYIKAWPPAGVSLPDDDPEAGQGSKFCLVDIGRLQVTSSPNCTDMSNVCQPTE
Chain of λCI_Arnt362 C308R (P27540 1-362 C308R): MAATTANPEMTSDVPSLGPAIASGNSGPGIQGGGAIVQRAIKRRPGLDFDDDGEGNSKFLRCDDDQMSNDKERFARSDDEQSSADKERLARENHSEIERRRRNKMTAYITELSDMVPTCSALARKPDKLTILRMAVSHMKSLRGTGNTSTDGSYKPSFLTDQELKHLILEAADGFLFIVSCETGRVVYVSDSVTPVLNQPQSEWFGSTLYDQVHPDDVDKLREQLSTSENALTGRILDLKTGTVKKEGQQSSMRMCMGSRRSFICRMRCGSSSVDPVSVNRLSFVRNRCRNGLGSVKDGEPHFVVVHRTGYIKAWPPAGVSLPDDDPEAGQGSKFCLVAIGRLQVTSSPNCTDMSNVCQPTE

B1: RNAPα_AhR278 (domain or fragment, mouse, UniProt P30561 1-278, looked up)
chain: MSSGANITYASRKRRKPVQKTVKPIPAEGIKSNPSKRHRDRLNTELDRLASLLPFPQDVINKLDKLSVLRLSVSYLRAKSFFDVALKSTPADRNGGQDQCRAQIRDWQDLQEGEFLLQALNGFVLVVTADALVFYASSTIQDYLGFQQSDVIHQSVYELIHTEDRAEFQRQLHWALNPDSAQGVDEAHGPPQAAVYYTPDQLPPENASFMERCFRCRLRCLLDNSSGFLAMNFQGRLKYLHGQNKKGKDGALLPPQLALFAIATPLQPPSILEIRTKN
For B1, the “β-gal activity relative to wt” value is < 60 % of wt β-gal activity in assay [1]; < 60 % of wt β-gal activity in assay [2]; < 60 % of wt β-gal activity in assay [3]; < 60 % of wt β-gal activity in assay [4]; 47 % of wt activity in assay [5]; < 60 % of wt β-gal activity in assay [6]. The “β-gal activity relative to wt” value in assay [7] is < 60 % of wt β-gal activity.
